Measured values published in patent US20090175881A1 (SCHERING, published 2009).
Where “and” joins values, the source holds several entries; their conditions need not be identical. Identical values can stand only once.

Assays:
R&D Systems human IL-17A = target: T1, R&D Systems human IL-17A (human, UniProt Q16552 20-155); assay: sandwich ELISA, IL-17A captured on rat 12E6, antibody titrated
T1 construct: Bought from R&D Systems, made in E. coli; also called R&D IL-17A; E. coli-derived human IL-17 (IL-17A)
T1 sequence: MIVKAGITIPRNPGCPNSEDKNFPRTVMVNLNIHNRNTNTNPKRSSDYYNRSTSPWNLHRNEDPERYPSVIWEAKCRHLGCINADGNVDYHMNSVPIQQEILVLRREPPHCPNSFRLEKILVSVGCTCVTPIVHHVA
Method: (§1) Binding of anti-human-IL-17A monoclonal antibodies to rhIL-17A is assessed using an ELISA as follows. Briefly, a capture antibody is bound to the wells of a microtiter plate, after which a fixed concentration of rhIL-17A is added. The monoclonal anti-IL-17A to be assayed is then titrated versus the bound rhIL-17A on the plate to determine the concentration of antibody needed to achieve half-maximal binding. A more detailed protocol follows.
(§2) A 96-well microtiter plate is coated with 100 μl/well of capture antibody (rat anti-hIL-17A 12E6, 0.5 μg/ml) in carbonate coating buffer pH 9.5 (the “assay plate”). Plates are incubated covered at 4° C. for 24 to 48 hours. The assay plate is washed three times in a plate washer (SkanWasher, Molecular Devices, Sunnyvale, Calif., USA) and blotted dry. The plate is then blocked with 200 μl/well of ELISA assay buffer (20 mM Tris-HCl, 0.15 M NaCl, pH7.4, 0.5% BSA, 0.05% Tween-20, SM EDTA) for one hour at 25° C. on an orbital shaker. The plate is washed, and 100 μl/well of either adenovirus-derived rhIL-17A or E. coli-derived human IL-17 (IL-17A) (R&D Systems, Minneapolis, Minn., USA) (0.1 g/ml) is added in ELISA assay buffer and incubated for 2 hours at 25° C. on an orbital shaker. […] Plates are incubated for 1.5 hours at 25° C. on an orbital shaker. Plates are washed and 100 μl/well secondary antibody (F(ab′)₂ goat anti-human kappa light chain—HRP, 1:20,000 dilution, BioSource, Carlsbad, Calif., USA) is added, except for assay blank wells. Plates are washed twice (i.e. two cycles of 3 washes per cycle) with plate rotation between cycles. TMB substrate (Kirkegaard & Perry Laboratories, Gaithersburg, Md., USA) is added at 100 μl/well and incubated 3-5 minutes on an orbital shaker. Stop solution is added (100 μl/well) and the plate is read for absorbance at 450-570 um on a plate reader (Versamax, Molecular Devices, Sunnyvale, Calif., USA).

rhIL-17A [1] = target: T2, rhIL-17A (human, UniProt Q16552 24-155); assay: as above
T2 construct: Homodimer; expressed from adenoviral vectors in HEK 293 cells; also called recombinant human IL-17A; adenovirus-derived rhIL-17A
T2 sequence: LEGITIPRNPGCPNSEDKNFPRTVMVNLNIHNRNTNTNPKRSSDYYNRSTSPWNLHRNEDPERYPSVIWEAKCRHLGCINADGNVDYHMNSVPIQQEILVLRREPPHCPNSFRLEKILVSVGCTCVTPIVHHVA
Method: as §1, §2

rhIL-17A [2] = target: T2, rhIL-17A; assay: cell-based or functional assay
native human IL-17A [3] = target: T3, native human IL-17A (human, UniProt Q16552 24-155); assay: cell-based or functional assay
T3 sequence: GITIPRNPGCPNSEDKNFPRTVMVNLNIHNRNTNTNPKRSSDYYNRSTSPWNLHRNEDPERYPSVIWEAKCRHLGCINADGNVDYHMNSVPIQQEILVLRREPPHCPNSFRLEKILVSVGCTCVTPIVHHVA

cynomolgus monkey IL-17A [4] = target: T4, cynomolgus monkey IL-17A (cynomolgus monkey, UniProt A0A2K5TTB0 24-155); assay: cell-based or functional assay
T4 sequence: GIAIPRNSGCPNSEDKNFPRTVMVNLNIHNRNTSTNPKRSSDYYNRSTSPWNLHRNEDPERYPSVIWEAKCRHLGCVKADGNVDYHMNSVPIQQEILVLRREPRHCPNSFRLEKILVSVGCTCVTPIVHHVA

rhIL-17A [5] = target: T2, rhIL-17A; assay: KinExA, solution equilibrium
Method: (§3) The equilibrium dissociation constants (Kd) for anti human IL-17A antibodies were determined using the KinExA 3000 instrument (Sapidyne Instruments Inc., Boise, Id., USA). KinExA uses the principle of the Kinetic Exclusion Assay method based on measuring the concentration of uncomplexed antibody in a mixture of antibody, antigen and antibody-antigen complex. […] The concentration of free antibody is measured by exposing the mixture to a solid-phase immobilized antigen for a very brief period of time. l practice, this is accomplished by flowing the solution phase antigen-antibody mixture past antigen-coated particles trapped in a flow cell. Data generated by the instrument are analyzed using custom software.
(§4) IL-17A was derived from either human (“hu”), cynomolgus monkey (“cyno”), or mouse (“mu”). IL-17A from the same species was used in both the immobilized and solution phases for each KinExA determination. Poly(methyl-methacrylate) (PMMA) particles (98 micron) were coated with human, cyno or mouse IL-17A according to Sapidyne “Protocol for coating PMMA particles with biotinylated ligands having short or nonexistent linker arms.” All experimental procedures were done according to the KinExA 3000 manual. All runs were done in duplicate.
(§5) Two-fold serial dilutions of the antigen were prepared and mixed with the antibody at constant concentration. The mixture was incubated for 2 hours at 25° C. to equilibrate.

cynomolgus monkey IL-17A [6] = target: T4, cynomolgus monkey IL-17A; assay: KinExA, solution equilibrium
Method: as §3, §4, §5

rhIL-17A [7] = target: T2, rhIL-17A; assay: cell-based or functional assay; remark: listed apart in the source
native human IL-17A [8] = target: T3, native human IL-17A; assay: cell-based or functional assay; remark: listed apart in the source
cynomolgus monkey IL-17A [9] = target: T4, cynomolgus monkey IL-17A; assay: cell-based or functional assay; remark: listed apart in the source
rhIL-17A [10] = target: T2, rhIL-17A; assay: cell-based or functional assay; remark: listed apart in the source
cynomolgus monkey IL-17A [11] = target: T4, cynomolgus monkey IL-17A; assay: cell-based or functional assay; remark: listed apart in the source
mouse IL-17A [12] = target: T5, mouse IL-17A (mouse, UniProt Q62386 26-158, limits assumed); assay: ECL (Origen); area under the curve
T5 construct: also called mu IL-17A; mu IL-17
T5 sequence (looked up): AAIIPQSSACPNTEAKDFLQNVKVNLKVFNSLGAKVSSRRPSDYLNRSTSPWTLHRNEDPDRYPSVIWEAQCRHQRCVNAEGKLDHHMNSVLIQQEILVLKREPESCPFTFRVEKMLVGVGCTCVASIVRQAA
From the text: (§6) Origen electrochemiluminescence technology, developed by IGEN, Inc. (Gaithersburg, Md., USA), and was employed to measure the binding of rat anti-human IL-17A antibodies (and one chimeric antibody) to FLAG-huL-17A. […] Electrochemiluminescence technology uses a stable ruthenium metal chelate (Ori-TAG) which, in the presence of tripropylamine (TPA), generates electrochemiluminescence upon voltage application. Paramagnetic beads, microns in diameter, act as the solid phase and facilitate rapid assay kinetics. The bead/complex is channeled through a flow cell and captured at an electrode by magnetic application. Voltage is applied and resulting electrochemiluminescence is measured.
(§7) ECL assays were performed as follows. Three-fold serial dilutions of anti-human IL-17A mAbs in 50 μl of the assay buffer were made in a 96-well microtiter plate to give 1-3 μg/ml final concentration in the first well. […] Finally 50 μl of Origen Streptavidin-Dynabeads at 0.1 mg/ml was added to each well. […] GraphPad Prism software (GraphPad Software, San Diego, Calif., USA) was used to plot the data and calculate area under the curve, which is a rough measure of binding.

cynomolgus monkey IL-17A [13] = target: T4, cynomolgus monkey IL-17A; assay: ECL (Origen); area under the curve
From the text: as §6, §7

FLAG-huIL-17A [14] = target: T6, FLAG-huIL-17A (human, UniProt Q16552 24-155); assay: KinExA, solution equilibrium
T6 construct: also called FLAG-huL-17A; FLAG-IL-17A
T6 sequence: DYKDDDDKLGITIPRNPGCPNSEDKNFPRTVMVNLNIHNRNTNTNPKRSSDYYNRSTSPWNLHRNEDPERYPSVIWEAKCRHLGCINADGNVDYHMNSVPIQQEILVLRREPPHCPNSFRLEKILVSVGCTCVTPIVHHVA
Method: as §3, §4, §5

mouse IL-17A [15] = target: T5, mouse IL-17A; assay: KinExA, solution equilibrium
Method: as §3, §4, §5

rhIL-17A [16] = target: T2, rhIL-17A; assay: cell-based or functional assay; remark: listed apart in the source
rhIL-17A [17] = target: T2, rhIL-17A; assay: cell-based or functional assay; remark: listed apart in the source
cynomolgus monkey IL-17A [18] = target: T4, cynomolgus monkey IL-17A; assay: cell-based or functional assay; remark: listed apart in the source
FLAG-huIL-17A [19] = target: T6, FLAG-huIL-17A; assay: ECL (Origen), antibody titrated against biotinylated antigen; area under the curve
From the text: as §6, §7

| Binder | IC50, synoviocyte IL-6 production, rhIL-17A (30 ng/ml) (rhIL-17A [2]) [µg/mL] | IC50, synoviocyte IL-6 production, Native huIL-17A (10 ng/ml) (native human IL-17A [3]) [µg/mL] | IC50, synoviocyte IL-6 production, NHP IL-17A (30 ng/ml) (cynomolgus monkey IL-17A [4]) [µg/mL] | Kd (cynomolgus monkey IL-17A [6]) [nM] | IC50, synoviocyte IL-8 production, rhIL-17A (30 ng/ml) (rhIL-17A [7]) [µg/mL] | IC50, synoviocyte IL-8 production, Native huIL-17A (10 ng/ml) (native human IL-17A [8]) [µg/mL] | IC50, synoviocyte IL-8 production, NHP IL-17A (30 ng/ml) (cynomolgus monkey IL-17A [9]) [µg/mL] | IC50, Ba/F3 hIL-17Rc-mGCSFR proliferation assay, IL-17A at 276 pM (rhIL-17A [10]) [pM] | IC50, Ba/F3 hIL-17Rc-mGCSFR proliferation assay, IL-17A at 100 pM (cynomolgus monkey IL-17A [11]) [pM] | Area Under Peak (mouse IL-17A [12]) | Area Under Peak (cynomolgus monkey IL-17A [13]) | Kd (FLAG-huIL-17A [14]) [nM] | Kd (mouse IL-17A [15]) [nM] | IC50, foreskin fibroblast (HS68) assay, rhIL-17A-induced IL-6 (rhIL-17A [16]) [nM] | IC50, inhibition of IL-6 production in NHDF cells, rhIL-17A (rhIL-17A [17]) [nM] | IC50, inhibition of IL-6 production in NHDF cells, cyno IL-17A (cynomolgus monkey IL-17A [18]) [nM] | Area Under Peak (FLAG-huIL-17A [19]) | also measured |
| --- | --- | --- | --- | --- | --- | --- | --- | --- | --- | --- | --- | --- | --- | --- | --- | --- | --- | --- |
| humanized 16C10 (VH N54Q/M96A) (antibody, human IgG1, kappa, V domains shown, Human IgG1/kappa; also called hu 16C10; hu16C10) VH: QVQLQESGPGLVKPSETLSLTCTVSGFSLPSHSVSWIRQPPGKGLEWIGIIWNQGGTDYNSAFKSRVTISVDTSKNQFSLKLSSVTAADTAVYYCARNAYITDYYYENYFMDAWGQGTLVTVSS VL: DIVMTQSPLSLPVTPGEPASISCKSSQSLLFSENQKNYLAWYLQKPGQSPQLLIYWTSTRQSGVPDRFSGSGSGTDFTLKISRVEAEDVGVYYCQQSYYTPYTFGQGTKVEIKR | 0.07 | 0.025 | 0.07 | 0.0163 | 0.038 | 0.05 | 0.038 | 149 | 17 |  |  |  |  |  |  |  |  | EC50 (R&D Systems human IL-17A): 0.136 nM; EC50 (rhIL-17A [1]): 0.092 nM; Kd (rhIL-17A [5]): 0.0039 nM; IC50, Ba/F3 hIL-17Rc-mGCSFR proliferation assay, IL-17A at 100 pM (rhIL-17A [10]): 15 pM and 13 pM and 27 pM |
| rat 23E12 (antibody, V domains shown, Parental rat monoclonal antibody (hybridoma PTA-7740)) VH: QVQLKESGPGLVQPSQTLSLTCTVFGFSLTNNGVTWVRQPPGKGLEWIAEVSSGGSTDYNSALKSRLSISRDTSKSQVFLRMNSLQTEDTAIYFCARQEVFTGLLDYWGQGVMVTVSS VL: DIQMTQSPASLSASLGETVTIQCQASEDIYSGLAWYHQKPGKSPQLLILGASRLHDGVPSRFSGSGSGIEYSLKINNMQTEDEGIYFCQQGLKYPPTFGGGTKLELKR |  |  |  | 0.028 |  |  |  |  |  | 143000 | 111000 | 0.0028 | 7 | 0.126 | 1 | 0.3 | 285000 |  |
| rat 1D10 (antibody, V domains shown, Parental rat monoclonal antibody; also called ID10; anti-IL-17A antibody 1D10) VH: QVQLKESGPGLVQPSQTLSLTCTVSGFSLTNYYVHWVRQPPGKGLEWMGGVWNDGDTSYNSVLRSRLSITRDTSKSQVLLKMSSLQTEDTATYYCAREGREGFVGYYVMDAWGPGASVTVSS VL: DIQMTQSPSFLSASVGERVTLSCKASQNINKYLDWFQQKLGEAPKLLIYNADNLHTGIPSRFSGSGSFSDFILTISSLQPEDDATYFCLQRESWPYTFGAGTKLELKR | 0.105 | 0.025 | 0.065 | 0.0098 | 0.059 | 0.04 | 0.038 | 223 | 19 | 252000 | 136000 | 0.0017 | 0.0103 | 0.065 | 1 | 0.4 | 477000 |  |
